Biological target: T1, PD-L1 (Programmed death-ligand 1) on MDA-MB-231 cancer cells (UniProt Q9NZQ7 19-290, limits assumed)
T1 construct: whole, on cells; Endogenous PD-L1 of the MDA-MB-231 cell line
Assay: concluded from co-culture 4-1BB reporter assay with PD-L1-expressing MDA-MB-231 cells

T1 sequence (Q9NZQ7 19-290 limits assumed): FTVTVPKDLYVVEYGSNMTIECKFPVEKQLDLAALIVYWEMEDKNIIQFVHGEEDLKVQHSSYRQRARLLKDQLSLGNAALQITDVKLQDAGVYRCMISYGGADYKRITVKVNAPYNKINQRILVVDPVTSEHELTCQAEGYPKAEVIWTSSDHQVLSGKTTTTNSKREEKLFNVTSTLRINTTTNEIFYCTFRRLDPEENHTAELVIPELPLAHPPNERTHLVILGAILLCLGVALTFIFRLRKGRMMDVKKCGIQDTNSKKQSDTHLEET

B1: αCEA-αPDL1-hyFc-4-1BBL 융합단백질 이량체 (Fc fusion)
chain: EVQLVESGGGVVQPGRSLRLSCSASGFDFTTYWMSWVRQAPGKGLEWIGEIHPDSSTINYAPSLKDRFTISRDNAKNTLFLQMDSLRPEDTGVYFCASLYFGFPWFAYWGQGTPVTVSSGGGGSGGGGSGGGGSDIQLTQSPSSLSASVGDRVTITCKASQDVGTSVAWYQQKPGKAPKLLIYWTSTRHTGVPSRFSGSGSGTDFTFTISSLQPEDIATYYCQQYSLYRSFGQGTKVEIKGGGGSGGGGSGGGGSGGGGSEVQLLESGGGLVQPGGSLRLSCAASGFTFSSYDMSWVRQAPGKSLEWVATISDAGGYIYYSDSVKGRFTISRDNSKNTLYLQMNSLRAEDTAVYICAREFGKRYALDYWGQGTTVTVSSGGGGSGGGGSGGGGSDIQMTQSPSSLSASVGDRVTITCKASQDVTPAVAWYQQKPGKAPKLLIYSTSSRYTGVPSRFSGSGSGTDFTFTISSLQPEDIATYYCQQHYTTPLTFGQGTKLEIKGGGGSGGGGSGGGGSEPKSCDKTHTCPPCPSHTQPLGVFLFPPKPKDQLMISRTPEVTCVVVDVSQEDPEVQFNWYVDGVEVHNAKTKPREEQFNSTYRVVSVLTVLHQDWLNGKEYKCKVSNKGLPSSIEKTISKAKGQPREPQVYTLPPSQEEMTKNQVSLTCLVKGFYPSDIAVEWESNGQPENNYKTTPPVLDSDGSFFLYSRLTVDKSRWQEGNVFSCSVLHEALHNHYTQKSLSLSLGKGGGGSDPAGLLDLRQGMFAQLVAQNVLLIDGPLSWYSDPGLAGVSLTGGLSYKEDTKELVVAKAGVYYVFFCLELRRVVAGEGSGSVSLALHLQPLRSAAGAAALALTVDLPPASSEARNSAFGFQGRLLHLSAGQRLGVHLHTEARARHAWQLTQGATVLGLFRVCPEIPAGLPSPRSE
notes: Homodimer by disulfide bonds in the linker; also called IO-129; αCEA-αPDL1-hyFc-h4-1BBL 융합단백질 이량체
binding result: binds

— patent KR20210098147A (dated 2021)
